Measured values reported in patent publication US20170008955A1 (CNJ, published 2017).
Changes are numbered by the printed parent chain.

B1: hu5E3-IgG1 (antibody, V domains shown)
VH: QVQLQQSGPEVKKPGASVKISCKASGYIFTSYYIQWVIHAPGQGLEWIGWIYPGNVNTKYNEKFKGKATLTADKSSSTAYMELSSLTSEDTAVYFCARMDYEAHYWGQGTTVTVSS
VL: DIQMTQSPSSLSASVGDRVTITCRASQEISGYLTWLQQKPEGAIKRLIYAASTLDSGVPKRFSGSRSGSDYSLTISSLQPEDFATYNCLQYANYPRTFGGGTKLEIK
notes: human IgG1/kappa; also called humanized 5E3 IgG1; IHA variant
B2: murine monoclonal antibody 5E3 (antibody, V domains shown)
VH: B1 VH with V11L, K12V, K19R, A40R, E82Q, S85R, T91S, V112L
VL: B1 VL with V15L, D17E, T20S, I21L, E41D, A43T, Q79E, P80S, T85D
notes: mouse antibody of the 5E3 hybridoma; also called murine 5E3; m5E3
B3: hu5E3-IgG2 (antibody, V domains shown)
VH: B1 VH
VL: B1 VL
notes: human IgG2/kappa; also called humanized 5E3 IgG2
B4: rehu5E3-IgG4 (antibody, V domains shown)
VH: B1 VH with K12V, T87R, T91S, T111L
VL: B1 VL with V15L, I21L, G42K, S72T, T85D
notes: human IgG4/kappa; also called IgG4 rehu version

These binders were tested against T1, cSNK:BSA conjugate (bovine, head-to-tail cyclized; conjugated to BSA carrier) (assay: BLI 2:1 fit, site 2 (KD2); 6.25 nM row).
T1 construct: also called BSA-cSNK
T1 sequence (P02769 25-607 limits assumed): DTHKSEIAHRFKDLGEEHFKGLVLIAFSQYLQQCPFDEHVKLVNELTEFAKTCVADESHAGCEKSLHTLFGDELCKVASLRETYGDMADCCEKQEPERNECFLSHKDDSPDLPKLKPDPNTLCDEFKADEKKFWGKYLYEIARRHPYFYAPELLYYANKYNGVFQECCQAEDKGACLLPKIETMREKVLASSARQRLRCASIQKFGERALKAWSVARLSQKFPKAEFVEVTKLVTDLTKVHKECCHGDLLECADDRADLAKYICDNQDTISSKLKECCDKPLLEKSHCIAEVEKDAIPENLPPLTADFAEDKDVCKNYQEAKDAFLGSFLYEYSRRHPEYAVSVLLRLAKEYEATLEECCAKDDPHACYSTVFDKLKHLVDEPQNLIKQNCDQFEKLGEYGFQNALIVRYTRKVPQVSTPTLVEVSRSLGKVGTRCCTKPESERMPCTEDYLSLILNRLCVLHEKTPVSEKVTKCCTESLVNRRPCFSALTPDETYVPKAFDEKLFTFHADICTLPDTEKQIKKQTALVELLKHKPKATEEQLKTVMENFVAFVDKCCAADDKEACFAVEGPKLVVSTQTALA
Procedure: (§1) Biolayer interferometry (Octet […], ForteBio) was used to qualitatively/quantitatively assess the interactions between humanized versions of 5E3 and cSNK:BSA conjugate. […] MAbs were loaded onto sensors and then washed in PBST. Each sensor was associated with one of several cSNK:BSA standards (100 nM to 0 nM) and then washed in PBST. Data was processed statistically using ForteBio Data Analysis software to determine the strength of antigen-antibody binding (KD). For each mAb analyzed, a 2:1 model provided the “best fit”.
For B1, the Kd was 1.82 nM. B2 was tested, and the Kd was 1.59 nM. Binder B3 has a Kd of 6.39 nM. Binder B4 has a Kd of 3.94 nM.

Each binder was assayed against T1, cSNK:BSA conjugate (assay: BLI 2:1 fit, site 2 (kdis2); 50 nM row).
Procedure: as §1
Work on B1 yielded a koff of 0.012 s⁻¹. Binder B2 has a koff of 0.0226 s⁻¹. In the case of B3, the koff is reported as 0.0338 s⁻¹. Work on B4 yielded a koff of 0.0175 s⁻¹.

These binders were tested against T1, cSNK:BSA conjugate (assay: BLI (Octet RED96), 2:1 kinetics, KD2, summary table).
Procedure: as §1
(§2) Table 7 summarizes the affinity constants of humanized 5E3 IgG1, IgG2 and IgG4 constructs. The KD ranges were determined using 2:1 kinetics of binding of analyte (BSA-cSNK) in solution to two different binding sites on the surface (immobilized bivalent, monospecific 5E3) in comparison to murine 5E3 using biolayer interferometry (Octet RED96).
Work on B1 yielded a Kd of 0.182 nM. B3 was tested, and the Kd was 6.39 nM. For B4, the Kd was 0.394 nM.

These binders were tested against T1, cSNK:BSA conjugate (assay: BLI 2:1 fit, site 1; 25 nM row).
Procedure: as §1
Work on B1 yielded a Kd of 0.463 nM, a koff of 0.000825 s⁻¹ and a kon of 1.78e+06 M⁻¹ s⁻¹. B2 was tested, and the Kd was 0.33 nM, the koff was 0.000428 s⁻¹ and the kon was 1.29e+06 M⁻¹ s⁻¹. Work on B3 yielded a Kd of 1.18 nM, a koff of 0.000762 s⁻¹ and a kon of 644000 M⁻¹ s⁻¹. For B4, the koff was 0.000386 s⁻¹ and the kon was 692000 M⁻¹ s⁻¹.

The binders below were run against T1, cSNK:BSA conjugate (assay: BLI 2:1 fit, site 2 (kdis2); 1.56 nM row).
Procedure: as §1
B1 gave a koff of 0.012 s⁻¹. Work on B2 yielded a koff of 0.0226 s⁻¹. In the case of B4, the koff is reported as 0.0175 s⁻¹.

These binders were tested against T1, cSNK:BSA conjugate (assay: BLI 2:1 fit, site 2 (KD2); 50 nM row).
Procedure: as §1
B1 gave a Kd of 1.82 nM. Work on B2 yielded a Kd of 1.59 nM. For B3, the Kd was 6.39 nM. For B4, the Kd was 3.94 nM.

What follows are binders tested against T1, cSNK:BSA conjugate (assay: BLI 2:1 fit, site 2 (KD2); 100 nM row).
Procedure: as §1
B2 gave a Kd of 1.59 nM. B3 gave a Kd of 6.39 nM. B4 showed a Kd of 3.94 nM.

These binders were tested against T1, cSNK:BSA conjugate (assay: BLI 2:1 fit, site 2 (KD2); 12.5 nM row).
Procedure: as §1
With B1 the Kd was 1.82 nM. B2 was tested, and the Kd was 1.59 nM. B3 gave a Kd of 6.39 nM. In the case of B4, the Kd is reported as 3.94 nM.

The binders below were run against T1, cSNK:BSA conjugate (assay: BLI 2:1 fit, site 2 (kdis2); 25 nM row).
Procedure: as §1
Work on B1 yielded a koff of 0.012 s⁻¹. With B2 the koff was 0.0226 s⁻¹. For B3, the koff was 0.0338 s⁻¹. In the case of B4, the koff is reported as 0.0175 s⁻¹.

These binders were tested against T1, cSNK:BSA conjugate (assay: BLI 2:1 fit, site 2 (kon2); 3.13 nM row).
Procedure: as §1
Work on B1 yielded a kon of 6.56e+06 M⁻¹ s⁻¹. In the case of B2, the kon is reported as 1.42e+07 M⁻¹ s⁻¹. Work on B3 yielded a kon of 5.28e+06 M⁻¹ s⁻¹. Work on B4 yielded a kon of 4.44e+06 M⁻¹ s⁻¹.

The binders below were run against T1, cSNK:BSA conjugate (assay: BLI 2:1 fit, site 1; 6.25 nM row).
Procedure: as §1
B1 was tested, and the Kd was 0.463 nM, the koff was 0.000825 s⁻¹ and the kon was 1.78e+06 M⁻¹ s⁻¹. With B2 the Kd was 0.33 nM, the koff was 0.000428 s⁻¹ and the kon was 1.29e+06 M⁻¹ s⁻¹. In the case of B3, the Kd is reported as 1.18 nM, the koff is reported as 0.000762 s⁻¹ and the kon is reported as 644000 M⁻¹ s⁻¹. In the case of B4, the koff is reported as 0.000386 s⁻¹ and the kon is reported as 692000 M⁻¹ s⁻¹.

What follows are binders tested against T1, cSNK:BSA conjugate (assay: BLI 2:1 fit, site 2 (kon2); 6.25 nM row).
Procedure: as §1
For B1, the kon was 6.56e+06 M⁻¹ s⁻¹. B2 showed a kon of 1.42e+07 M⁻¹ s⁻¹. Work on B3 yielded a kon of 5.28e+06 M⁻¹ s⁻¹. Work on B4 yielded a kon of 4.44e+06 M⁻¹ s⁻¹.

Each binder was assayed against T1, cSNK:BSA conjugate (assay: BLI 2:1 fit, site 2 (kdis2); 3.13 nM row).
Procedure: as §1
Binder B1 has a koff of 0.012 s⁻¹. For B2, the koff was 0.0226 s⁻¹. For B3, the koff was 0.0338 s⁻¹. B4 gave a koff of 0.0175 s⁻¹.

The binders below were run against T1, cSNK:BSA conjugate (assay: BLI (Octet), 1:1 model, BSA-cSNK).
Procedure: Biolayer interferometry (Octet Red92, ForteBio) was used to qualitatively/quantitatively assess the interactions between humanized 5E3 and Δ5E3 mAbs to the cSNK:BSA conjugate. […] MAbs were loaded onto sensors and then washed in PBST. Each sensor was associated with one of several cSNK:BSA standards (100 nM to 0 nM) and then washed in PBST. Data was processed statistically using ForteBio Data Analysis software to determine the strength of antigen-antibody binding (KD). For each mAb analyzed, a 1:1 model provided the “best fit”.
Work on B1 yielded a Kd of 2.01 nM. B3 was tested, and the Kd was 0.326 nM.

The binders below were run against T1, cSNK:BSA conjugate (assay: BLI 2:1 fit, site 2 (kdis2); 12.5 nM row).
Procedure: as §1
Binder B1 has a koff of 0.012 s⁻¹. Binder B2 has a koff of 0.0226 s⁻¹. B3 gave a koff of 0.0338 s⁻¹. Work on B4 yielded a koff of 0.0175 s⁻¹.

What follows are binders tested against T1, cSNK:BSA conjugate (assay: BLI 2:1 fit, site 2 (kon2); 50 nM row).
Procedure: as §1
B1 was tested, and the kon was 6.56e+06 M⁻¹ s⁻¹. For B2, the kon was 1.42e+07 M⁻¹ s⁻¹. B3 showed a kon of 5.28e+06 M⁻¹ s⁻¹. With B4 the kon was 4.44e+06 M⁻¹ s⁻¹.

What follows are binders tested against T1, cSNK:BSA conjugate (assay: BLI 2:1 fit, site 1; 3.13 nM row).
Procedure: as §1
For B1, the Kd was 0.463 nM, the koff was 0.000825 s⁻¹ and the kon was 1.78e+06 M⁻¹ s⁻¹. In the case of B2, the Kd is reported as 0.33 nM, the koff is reported as 0.000428 s⁻¹ and the kon is reported as 1.29e+06 M⁻¹ s⁻¹. With B3 the Kd was 1.18 nM, the koff was 0.000762 s⁻¹ and the kon was 644000 M⁻¹ s⁻¹. B4 was tested, and the koff was 0.000386 s⁻¹ and the kon was 692000 M⁻¹ s⁻¹.

Each binder was assayed against T1, cSNK:BSA conjugate (assay: BLI 2:1 fit, site 2 (kon2); 100 nM row).
Procedure: as §1
In the case of B2, the kon is reported as 1.42e+07 M⁻¹ s⁻¹. B3 gave a kon of 5.28e+06 M⁻¹ s⁻¹. For B4, the kon was 4.44e+06 M⁻¹ s⁻¹.

What follows are binders tested against T1, cSNK:BSA conjugate (assay: BLI 2:1 fit, site 2 (kon2); 12.5 nM row).
Procedure: as §1
B1 was tested, and the kon was 6.56e+06 M⁻¹ s⁻¹. For B2, the kon was 1.42e+07 M⁻¹ s⁻¹. B3 showed a kon of 5.28e+06 M⁻¹ s⁻¹. B4 showed a kon of 4.44e+06 M⁻¹ s⁻¹.

Each binder was assayed against T1, cSNK:BSA conjugate (assay: BLI 2:1 fit, site 2 (kdis2); 6.25 nM row).
Procedure: as §1
Work on B1 yielded a koff of 0.012 s⁻¹. B2 showed a koff of 0.0226 s⁻¹. B3 was tested, and the koff was 0.0338 s⁻¹. Binder B4 has a koff of 0.0175 s⁻¹.

Each binder was assayed against T1, cSNK:BSA conjugate (assay: BLI (Octet RED96), 2:1 kinetics, KD1, summary table).
Procedure: as §1, §2
Binder B1 has a Kd of 0.463 nM. With B2 the Kd was 0.33 nM. With B3 the Kd was 1.18 nM. Binder B4 has a Kd of 0.557 nM.

The binders below were run against T1, cSNK:BSA conjugate (assay: BLI 2:1 fit, site 2 (KD2); 25 nM row).
Procedure: as §1
In the case of B1, the Kd is reported as 1.82 nM. B2 showed a Kd of 1.59 nM. In the case of B3, the Kd is reported as 6.39 nM. B4 showed a Kd of 3.94 nM.

The binders below were run against T1, cSNK:BSA conjugate (assay: BLI 2:1 fit, site 2 (kdis2); 100 nM row).
Procedure: as §1
B2 gave a koff of 0.0226 s⁻¹. Binder B3 has a koff of 0.0338 s⁻¹. B4 showed a koff of 0.0175 s⁻¹.

Each binder was assayed against T1, cSNK:BSA conjugate (assay: BLI 2:1 fit, site 2 (KD2); 3.13 nM row).
Procedure: as §1
Work on B1 yielded a Kd of 1.82 nM. For B2, the Kd was 1.59 nM. With B3 the Kd was 6.39 nM. B4 showed a Kd of 3.94 nM.

These binders were tested against T1, cSNK:BSA conjugate (assay: BLI 2:1 fit, site 1; 100 nM row).
Procedure: as §1
Binder B2 has a Kd of 0.33 nM, a koff of 0.000428 s⁻¹ and a kon of 1.29e+06 M⁻¹ s⁻¹. For B3, the Kd was 1.18 nM, the koff was 0.000762 s⁻¹ and the kon was 644000 M⁻¹ s⁻¹. B4 showed a koff of 0.000386 s⁻¹ and a kon of 692000 M⁻¹ s⁻¹.
